Experimental data: the supplement of paper PMC10126150
± gives the standard deviation of the averaged measurements.

System: ATP
Assay: switch fluorescence ratio, 500 uM ATP over buffer (Cy3 cluster intensity, sum of 5 cycles each) (fold (ratio)); higher = stronger signal-on switching upon ATP binding; sequences stand for … in TCGTCGGCAGCGTCAGATGTGTATAAGAGACAGTTTTTTTTTTTTTTTTTTTTTTTTT…TC
Conditions: aptamer strand: ATP DNA aptamer (quencher-CACCTGGGGGAGTATTGCGGAGGAAGG + anchor), 100 nM annealed; ATP concentration: 500 uM
Method in brief: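 Per cluster, summed Cy3 intensity from the target cycles was divided by that from the buffer cycles to give the fluorescence ratio, then averaged per switch-domain sequence. Clusters outside 100-1000 RFU were excluded. The Cy3-labelled switching-strand clusters, on a modified Illumina MiSeq flow-cell, were annealed to 100 nM quencher-labelled ATP aptamer and imaged in selection buffer, then after 15 min with 500 uM ATP at 22 °C, for five cycles with NaOH stripping and re-annealing between them.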
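Also: ATP exposure 15 min at 22 °C before imaging.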

Sequence | switch fluorescence ratio
GCTTGGTTTT | 1.01 ± 0.013
CGATTTTGAG | 0.9768 ± 0.0076
ATTATGGTAA | 1 ± 0.018
TGAAAGGATT | 1.02 ± 0.025
TCACATGTCG | 1.02 ± 0.053
TTGATTACTT | 1 ± 0.04
CATCGGCTCA | 1.12 ± 0.067
TCCAGGTGAC | 4.19 ± 0.38
AGGGGGGTAA | 0.993 ± 0.026
CCAGCGTGGT | 1.1 ± 0.019
TTTCGAGGGG | 1.02 ± 0.054
ATACCTGAGC | 1.113 ± 0.0041
AGGTTTTTAA | 1.01 ± 0.043
CAAGTGTACG | 1.01 ± 0.042
GTTGGATGGT | 0.964 ± 0.019
TAGCTGCATG | 1.01 ± 0.017
ATCAAATAGT | 1.01 ± 0.037
ACCTGGGGGA | 1.07 ± 0.11
TGCCACTGGG | 1.06 ± 0.019
AAAATGAAGT | 1.03 ± 0.048
AATTGGTGAA | 1.01 ± 0.014
CCAGTTTGGA | 0.998 ± 0.017
AGAGTGAGTT | 0.9533 ± 0.0045
GGATTGGATT | 1 ± 0.022
ACGTTCAGGG | 1.05 ± 0.059

Sequence | switch fluorescence ratio
TAAGGTAAGT | 0.987 ± 0.021
AGAATATTAG | 0.987 ± 0.037
GGCCATATGT | 1.02 ± 0.016
GTCGATGGTG | 1 ± 0.016
CGCGCTGACT | 1.05 ± 0.017
TTTAGAGTAT | 0.992 ± 0.018
GAATTTGATG | 1 ± 0.042
GGGCGCACGG | 0.992 ± 0.039
GTTTTGGTCG | 0.9894 ± 0.007
TTTATGTAAG | 0.988 ± 0.065
CACTTGATGT | 0.996 ± 0.023
CGAAGTGGGG | 1.01 ± 0.026
TTTTTTTAGT | 0.996 ± 0.022
TAAGCAATGT | 2.69 ± 1.1
GCTATTGTTT | 0.9633 ± 0.0082
TTATTTATGC | 1.02 ± 0.055
GACTCCGATT | 2.28 ± 0.1
TTTTACGGTA | 1.12 ± 0.022
GCGATCAATT | 1.14 ± 0.051
GGGTTTGGGC | 1.01 ± 0.024
TGTGATAATG | 0.9831 ± 0.0017
GGTTTTCCTG | 0.975 ± 0.014
CTGGGGTTAC | 1.77 ± 1
CCGAGAGGGT | 1.06 ± 0.069
ACCAATTGAA | 1.01 ± 0.05

Sequence | switch fluorescence ratio
GGATTTGAAT | 1.03 ± 0.031
GCGTTGGGGT | 1.01 ± 0.019
AGGGTCGATG | 1.07 ± 0.073
GCGGACGGGT | 0.969 ± 0.019
TGTTTTACTA | 0.986 ± 0.031
CTATAGAAGG | 1.02 ± 0.025
GGATTATCTC | 1.015 ± 0.0044
TAGGGGGAGA | 1.06 ± 0.043
TCTCGGGTCT | 1.02 ± 0.045
AGAAATTCGA | 1.03 ± 0.012
ATATTTATCG | 1.01 ± 0.033
CAGGGGGTAA | 1.01 ± 0.069
AAGCCGGATG | 1.005 ± 0.0095
TCTTATTCTG | 1.044 ± 0.0063
TTTCCTGGTA | 0.9817 ± 0.0073
TGGGTAGGTC | 1.014 ± 0.0014
CGCATAGAAA | 1.02 ± 0.045
AATAATTACA | 0.9987 ± 0.0094
AGGGACATAT | 1.018 ± 0.006
TGTCTCTACG | 1.021 ± 0.01
TCATGACGT | 0.9921 ± 0.0037
GCTCCTCGCT | 1.23 ± 0.081
TGCCAGTTGT | 1.006 ± 0.0076
CTCTTACGTT | 0.98 ± 0.023
GGGAGGAGTT | 0.9689 ± 0.0067

Sequence | switch fluorescence ratio
ATGGGGTTGT | 0.966 ± 0.019
TCGGAAATGT | 1.12 ± 0.14
ACACAGTATT | 1.0263 ± 0.00076
TGAGGAGGGG | 0.989 ± 0.048
TGCATGGGGT | 1.01 ± 0.022
GTGTATGCAA | 1.03 ± 0.029
TTTCAATGTA | 1.01 ± 0.039
ACGTTGGACA | 1.12 ± 0.05
GGCTCAACGA | 1.01 ± 0.045
AATGAGGGAG | 0.995 ± 0.01
AGAAAAATGG | 0.998 ± 0.02
TTGCATGGTG | 1.06 ± 0.03
AGGTAGGTTC | 0.995 ± 0.019
ATTAATAAAG | 0.9984 ± 0.0086
CAGTAGGTGG | 1 ± 0.028
TTAGGGGAAT | 1.43 ± 0.75
CGGGCCTTGG | 1.026 ± 0.0016
ACGGAGGGAA | 1.07 ± 0.085
GCGTGACGGG | 0.989 ± 0.037
TGCAGGATGC | 0.971 ± 0.027
AGGGCCTCCG | 1.295 ± 0.0091
TGGAGCTGGG | 1.31 ± 0.5
TTGAAGTCTA | 0.992 ± 0.027
GAGTGCAGGA | 1.01 ± 0.033
CATCATGGTC | 1.03 ± 0.054

Sequence | switch fluorescence ratio
GCGTCAGGGT | 0.973 ± 0.027
GGTAGGATAG | 0.9728 ± 0.0016
AGGGCGACCG | 1.07 ± 0.069
AGTTCGGGGT | 1.02 ± 0.024
TGTAATAGGG | 0.979 ± 0.013
GGAGATATCA | 1.035 ± 0.0074
AGGGAGGGAG | 0.97 ± 0.035
TTCGTTTGTT | 1.34 ± 0.56
CGAGGAGGGG | 0.995 ± 0.02
TTGCCGGTAT | 1.05 ± 0.021
CCGAGTGGGC | 1.09 ± 0.012
CGCGGAGATG | 1.01 ± 0.035
AGATCTTGCG | 0.979 ± 0.019
CGGATAGTGG | 0.994 ± 0.014
GATTGCTTTC | 1.02 ± 0.023
TAAACGTCGA | 0.962 ± 0.065
AAGTGTCATT | 0.9999 ± 0.0028
TCTGAAATGG | 1.04 ± 0.047
CTCGTTATGT | 0.9782 ± 0.0065
GGTGATAGGG | 0.98 ± 0.036
TGTTTTCTGT | 0.976 ± 0.04
CTCTAAATGT | 1.11 ± 0.016
GGGGCTTGGT | 1.01 ± 0.034
TTTTTCAAAT | 1.04 ± 0.076
GCGGCAAGGG | 1.03 ± 0.035

Sequence | switch fluorescence ratio
TTTCTGGGGG | 0.984 ± 0.019
TCAGTCATTT | 1.003 ± 0.0066
GGGTTTACTT | 0.99844 ± 0.00094
CTAAAATGAA | 1.03 ± 0.018
GGTTTTCCGT | 1.07 ± 0.051
TGTTTGGAAG | 1.05 ± 0.056
GTGTTGAGGT | 0.984 ± 0.022
TTTTTGGGCA | 0.99 ± 0.013
CGTCGGGGGC | 1.005 ± 0.0096
TGCGGGATTA | 1.1 ± 0.18
GACTTAGGAA | 1.05 ± 0.072
GGTTAATTAC | 1.02 ± 0.034
TTCCTGTGGG | 1.02 ± 0.061
ACGTCCATTT | 1.06 ± 0.011
TTAAAAGTGG | 1.01 ± 0.022
TTCCGGGTGA | 1.23 ± 0.31
TTAGGGGGGA | 0.987 ± 0.032
GTTTCGCGGT | 1.04 ± 0.067
CAATATATCA | 0.999 ± 0.022
ATTTATGAAA | 1.04 ± 0.054
TGGGTGGAAG | 1.042 ± 0.01
GTAGTCCAGG | 1.27 ± 0.082
AAGGAAAATT | 0.973 ± 0.02
ATAGATAGTG | 0.959 ± 0.015
GAAGTTGGCA | 0.9964 ± 0.0029

Sequence | switch fluorescence ratio
ATTAATTAGA | 0.975 ± 0.041
CACACCGGCA | 1.093 ± 0.0043
CTATTCCTGT | 0.995 ± 0.014
CTGGCGAGCG | 1.03 ± 0.011
ACGGGGGAGA | 1.24 ± 0.35
GTGGTAGGGC | 1.021 ± 0.001
ATTCTCGTGC | 1.012 ± 0.0074
TGAGGACAGG | 1.06 ± 0.054
AGAAGGGCCC | 0.9967 ± 0.0016
GACTTTGAGC | 1.01 ± 0.016
CATCCGGGGT | 2.04 ± 0.57
TGATAATAGT | 0.989 ± 0.021
AAAGAGGGT | 0.986 ± 0.018
TTGTTTTGTC | 0.975 ± 0.065
GATGCGGGGC | 1.06 ± 0.03
AACTCCAGGT | 1.2 ± 0.011
CCTAGCCTGC | 1.16 ± 0.054
TGTGGGTTTA | 0.988 ± 0.033
ATAGACGTGT | 1.02 ± 0.092
TTGGGTCATG | 1.036 ± 0.0048
CAAGGTCGTA | 1 ± 0.029
GTGTCTCCAG | 1.03 ± 0.049
AGGGGACAAA | 1 ± 0.035
ACCAGTCTAG | 0.979 ± 0.018
TTTGGCCAGC | 0.975 ± 0.051

Sequence | switch fluorescence ratio
TTAGTATTAC | 1.05 ± 0.029
AGATTTTTTA | 0.954 ± 0.016
GAGGGATTCG | 1.01 ± 0.014
CGTTATTAGC | 1.033 ± 0.01
GCTAAATTAT | 0.963 ± 0.021
AGCGGGTGCC | 1.02 ± 0.039
TTGGGAGATT | 0.971 ± 0.024
GATGTTAGGG | 0.983 ± 0.026
TTTTACCCAA | 1.04 ± 0.024
GGGTCAGGAT | 0.968 ± 0.019
GAGAATTATA | 0.978 ± 0.019
CGTGGGGGGT | 1.01 ± 0.018
AAGGAAAAGT | 1.01 ± 0.035
CAGGTTTAGG | 1.01 ± 0.021
AAATCCTTAT | 0.996 ± 0.063
AACTATGAAC | 1.03 ± 0.029
GCCGGTGCTC | 0.996 ± 0.021
TAAAAATAAA | 0.995 ± 0.0065
TTTTTATGTT | 0.99 ± 0.032
CAGGGTCGGC | 0.993 ± 0.035
CAAGTACATG | 1.2 ± 0.014
ACTAGTAGGG | 1 ± 0.0095
AATGTGCATA | 0.988 ± 0.011
ATGGGTGGGT | 0.994 ± 0.034
CGTTGAGTAT | 0.981 ± 0.019
